Assay results published in patent US5935840A, “Activated recombinant adenovirus proteinases” (priority 1995, dated 1999).

Test system: (Leu-Arg-Gly-Gly-NH)2 -rhodamine
Assay: Fluorescence assay of proteinase activity of virus and recombinant proteinase preparations
Type: biochemical
Description: The nature of the proteinase cofactor(s) was pursued with the aid of the second assay, which utilizes the substrate (Leu-Arg-Gly-Gly-NH)2 -rhodamine. The design of this substrate was based on two facts. (1) It was known that the proteinase present in disrupted Ad2 virions would cleave small peptides with sequence similar to that found at natural cleavage sites in adenovirus virion precursors (Webster et al., 1989). (2) Cleavage of either tetra-peptide sequence from the substituted rhodamine substrate produces a very large increase, up to a 3500-fold, in fluorescence. Under conditions where only a small fraction of the rhodamine substrate is cleaved, the increase in fluorescence is proportional to the amount of proteinase present and to the time of incubation. Thus, the fluorescence assay provides a quantitative method for assessing proteinase activity that is more sensitive convenient and rapid than the gel electrophoresis assay.
Assays were performed in 400 μl of Assay Buffer (50 mM Tris-HCl, pH 7.4, 25 mM NaCl, 10 mM octylglucoside, and 1 mM dithiothreitol). […] When present, the number of disrupted virus particles was 10^10 and the amount of recombinant proteinase was 0.12 mAU280 nm. […] After 30 minutes at 37° C., a 360 μl aliquot of the reaction was added to 340 μl of Assay Buffer minus octylglucoside, and the increase in fluorescence was measured. The excitation wavelength was 492 nm and the emission wavelength was 523 nm, both with a bandwidth of 5 nm. The change in fluorescence, ΔF, is the magnitude of the fluorescence from the sample minus the magnitude of the fluorescence from an identical solution without enzyme.
Disrupted virus was obtained as follows: Twice CsCl-banded virus was dialyzed against 10 mM Tris-HCl, pH 8.0, 1mM EDTA and centrifuged at 100,000×g for 1 hour. The pellet was suspended in 10 mM Tris-HCl, pH 6.8, containing 20% (v/v) glycerol and, after three 10 second bursts of sonication, was stored at -20° C. The fluorogenic substrate was synthesized and purified at BNL by Dr. Walter Mangel, using methods similar to those previously described by Dr. Mangel. These methods are described in two U.S. Patents (U.S. Pat. No. 4,557,862 entitled "Rhodamine derivatives as fluorogenic substrates for proteinases" by Mangel, W. F., Leytus, S., and L. Helhado; issued Dec. 10, 1985; U.S. patent application Ser. No. 780,552; "Novel rhodamine derivatives as fluorogenic substrates" by Mangel, W. F., Leytus, S., and L. Helhado; filing date Sep. 24, 1985) and in other publications by Mangel and co-workers.

rEP protein: purified recombinant Ad2 proteinase, an activatable proteinase
Rate of substrate hydrolysis by the rEP protein alone (8.3 nM rEP protein, 1 μM substrate, no cofactors): less than 0.014 pmol substrate min^-1
Proteinase activity in fluorescence assay (complemented with disrupted H2ts1 virus): Activity was obtained
Proteinase activity in fluorescence assay (preparation alone): no activity
